According to paper PMC3741642:

Target: T1, hEndoV (FLJ35220, human endonuclease V) (Homo sapiens, UniProt Q8N8Q3 1-282)
T1 sequence: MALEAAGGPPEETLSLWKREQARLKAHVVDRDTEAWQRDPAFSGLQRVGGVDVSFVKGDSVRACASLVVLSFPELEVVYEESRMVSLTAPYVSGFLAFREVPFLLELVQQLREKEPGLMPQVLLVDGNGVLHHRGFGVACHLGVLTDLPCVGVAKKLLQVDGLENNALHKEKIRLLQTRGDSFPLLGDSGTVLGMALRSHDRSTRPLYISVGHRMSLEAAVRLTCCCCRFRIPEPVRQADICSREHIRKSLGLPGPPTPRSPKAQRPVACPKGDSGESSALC
Experiment: EMSA; 5 mM CaCl2; EMSA: 0.2 nM 32P substrate, 10 mM HEPES-KOH pH 8.0, 1 mM DTT, 2% glycerol, 5 mM CaCl2, 4 °C 30 min; nondenaturing 8% PAGE

B1: dsRNA without inosine (dsRNA)
RNA 1: CUGUAUGAUGAAGAUGCUGAC
RNA 2: GUCAGCAUCUUCAUCAUACAG
binding result: binds
